Changes are numbered by the printed parent chain. Numbers in names are those of the source. No end group written: not given here. *: point of attachment. Fluorescein(5-NHCOCH2) = O=C(C*)Nc1ccc2c(c1)C(=O)OC21c2ccc(O)cc2Oc2cc(O)ccc21
B1: peptide C4^Atto-655 (RRYC^Atto-655KSTEL) (peptide)
peptide: RRYC(Atto‑655)KSTEL
notes: synthetic 9-mer peptide C4; source: synthetic peptide (Fmoc solid-phase synthesis), labelled, purified by reversed-phase HPLC
B2: human coreTAPL D278A, C-terminal mVenus-His10 fusion (complex, UniProt Q9NP78 143-766, looked up)
chain: GTQALEPGAATEAEGFPGSGRPPPEQASGATLQKLLSYTKPDVAFLVAASFFLIVAALGETFLPYYTGRAIDGIVIQKSMDQFSTAVVIVCLLAIGSSFAAGIRGGIFTLIFARLNIRLRNCLFRSLVSQETSFFAENRTGDLISRLTSDTTMVSDLVSQNINVFLRNTVKVTGVVVFMFSLSWQLSLVTFMGFPIIMMVSNIYGKYYKRLSKEVQNALARASNTAEETISAMKTVRSFANEEEEAEVYLRKLQQVYKLNRKEAAAYMYYVWGSGLTLLVVQVSILYYGGHLVISGQMTSGNLIAFIIYEFVLGDCMESVGSVYSGLMQGVGAAEKVFEFIDRQPTMVHDGSLAPDHLEGRVDFENVTFTYRTRPHTQVLQNVSFSLSPGKVTALVGPSGSGKSSCVNILENFYPLEGGRVLLDGKPISAYDHKYLHRVISLVSQEPVLFARSITDNISYGLPTVPFEMVVEAAQKANAHGFIMELQDGYSTETGEKGAQLSGGQKQRVAMARALVRNPPVLILDEATSALDAESEYLIQQAIHGNLQKHTVLIIAHRLSTVEHAHLIVVLDKGRVVQQGTHQQLLAQGGLYAKLVQRQMLGLQPAADFTAGHNEPVANGSHKA
notes: human TAPL (ABCB9), coreTAPL, amino acids 143-766; Mutant of the mVenus fusion construct; TEV site between coreTAPL and mVenus; also called D278A^mV; source: Sf21 insect cells (baculovirus), purified by Ni-NTA after solubilisation in GDN or DDM; reconstituted into liposomes for transport and hydrolysis assays; not shown: mVenus, C-terminal, kept
B3: human coreTAPL R288A, C-terminal mVenus-His10 fusion (complex, UniProt Q9NP78 143-766, looked up)
chain: B2 chain with A136D, R146A
notes: human TAPL (ABCB9), coreTAPL, amino acids 143-766; Mutant of the mVenus fusion construct; TEV site between coreTAPL and mVenus; also called R288A^mV; source: Sf21 insect cells (baculovirus), purified by Ni-NTA after solubilisation in GDN or DDM; reconstituted into liposomes for transport and hydrolysis assays; not shown: mVenus, C-terminal, kept
B4: human coreTAPL D292A, C-terminal mVenus-His10 fusion (complex, UniProt Q9NP78 143-766, looked up)
chain: B2 chain with A136D, D150A
notes: human TAPL (ABCB9), coreTAPL, amino acids 143-766; Mutant of the mVenus fusion construct; TEV site between coreTAPL and mVenus; also called D292A^mV; source: Sf21 insect cells (baculovirus), purified by Ni-NTA after solubilisation in GDN or DDM; reconstituted into liposomes for transport and hydrolysis assays; not shown: mVenus, C-terminal, kept
B5: human coreTAPL wildtype (transporter associated with antigen processing-like, ABCB9), C-terminal mVenus-His10 fusion (complex, UniProt Q9NP78 143-766, looked up)
chain: B2 chain with A136D
notes: human TAPL (ABCB9), coreTAPL without the N-terminal TMD0, amino acids 143-766; A tobacco etch virus cleavage site lies between coreTAPL and mVenus; no cleavage is reported for the mVenus constructs, so the His10 behind mVenus was probably still there; also called wt; wt TAPL; source: Sf21 insect cells (baculovirus), purified by Ni-NTA after solubilisation in GDN or DDM; reconstituted into …

Legend:
[1] = biological target: human coreTAPL (TAPL, ABCB9) (Homo sapiens, UniProt Q9NP78, D292A); test: biochemical
[2] = biological target: human coreTAPL (TAPL, ABCB9) (Homo sapiens, UniProt Q9NP78, D278A); test: biochemical
[3] = biological target: human coreTAPL (TAPL, ABCB9) (Homo sapiens, UniProt Q9NP78); test: biochemical
[4] = biological target: human coreTAPL (TAPL, ABCB9) (Homo sapiens, UniProt Q9NP78, R288A); test: biochemical
[5] = biological target: T1, human coreTAPL D292A, C-terminal mVenus-His10 fusion (human) (UniProt Q9NP78)
T1 sequence: B2 chain with A136D, D150A

[6] = biological target: T2, human coreTAPL wildtype (transporter associated with antigen processing-like, ABCB9), C-terminal mVenus-His10 fusion (human) (UniProt Q9NP78)
T2 sequence: B2 chain with A136D

[7] = biological target: T3, human coreTAPL R288A, C-terminal mVenus-His10 fusion (human) (UniProt Q9NP78)
T3 sequence: B2 chain with A136D, R146A

[8] = biological target: T3, human coreTAPL R288A, C-terminal mVenus-His10 fusion (human); remark: listed apart in the source
[9] = biological target: B2; test: MST; 5 nM C4^Atto-655 with 5 μM GDN-purified TAPL variant in GDN-containing elution buffer, 22 °C, single concentration; conditions: both partners purified
[10] = biological target: B5; test: as above; conditions: both partners purified
[11] = biological target: B3; test: as above; conditions: both partners purified
[12] = biological target: B4; test: as above; conditions: both partners purified
[13] = biological target: the molecule itself; test: SEC; analytical, Superose 6 Increase 3.2/300, 20 mM Hepes, 140 mM NaCl, 100 mM imidazole, 15% glycerol, 0.1% GDN, pH 7.5, 4 °C; absorbance at 280 and 515 nm

Chain of human coreTAPL (TAPL, ABCB9) (Homo sapiens, UniProt Q9NP78) (Q9NP78 143-766): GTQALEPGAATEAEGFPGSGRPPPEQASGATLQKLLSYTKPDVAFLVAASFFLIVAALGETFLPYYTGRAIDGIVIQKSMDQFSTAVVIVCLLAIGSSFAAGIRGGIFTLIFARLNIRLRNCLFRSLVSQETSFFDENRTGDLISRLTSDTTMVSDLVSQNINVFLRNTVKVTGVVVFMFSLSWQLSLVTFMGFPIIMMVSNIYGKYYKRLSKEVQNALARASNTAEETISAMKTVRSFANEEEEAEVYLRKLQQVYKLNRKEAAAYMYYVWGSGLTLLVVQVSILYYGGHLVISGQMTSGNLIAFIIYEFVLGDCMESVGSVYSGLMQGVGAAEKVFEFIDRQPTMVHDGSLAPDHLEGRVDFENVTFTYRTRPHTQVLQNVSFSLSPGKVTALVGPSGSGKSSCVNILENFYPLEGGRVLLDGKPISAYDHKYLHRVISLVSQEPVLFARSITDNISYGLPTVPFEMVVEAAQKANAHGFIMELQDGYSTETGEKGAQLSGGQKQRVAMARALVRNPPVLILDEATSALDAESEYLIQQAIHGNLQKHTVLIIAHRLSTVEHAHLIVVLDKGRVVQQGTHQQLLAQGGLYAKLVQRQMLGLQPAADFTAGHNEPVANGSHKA
Chain of human coreTAPL (TAPL, ABCB9) (Homo sapiens, UniProt Q9NP78, R288A) (Q9NP78 143-766 R288A): as the sequence (Q9NP78 143-766) above, with R146A counted along it
Chain of human coreTAPL (TAPL, ABCB9) (Homo sapiens, UniProt Q9NP78, D292A) (Q9NP78 143-766 D292A): as the sequence (Q9NP78 143-766) above, with D150A counted along it

Nc1ncnc2c1ncn2[C@@H]1O[C@H](COP(=O)(O)OP(=O)(O)OP(=O)(O)O)[C@@H](O)[C@H]1O [ATP]
IC50 [1]: 1.3 ± 0.8 µM
IC50 [2]: 0.9 ± 0.2 µM
IC50 [3]: 1.9 ± 1.3 µM
IC50 [4]: 5.6 ± 1.7 µM

RRYQNSTC(Fluorescein(5-NHCOCH2))L [peptide NST^FL (RRYQNSTC^FLL)]
K (m,peptide) of peptide transport into proteoliposomes (0 to 30 μM NST^FL, 10 min, 37 °C) [5]: 2.5 µM
K (m,peptide) of peptide transport into proteoliposomes (0 to 30 μM NST^FL, 10 min, 37 °C) [6]: 4.1 µM
K (m,peptide) of peptide transport into proteoliposomes (0 to 30 μM NST^FL, 10 min, 37 °C) [7]: 2.2 µM

RRYQKSTEL [peptide R9L (…)]
IC50 of the decrease of ATP hydrolysis in proteoliposomes by R9L (0–300 μM, 0.3 mM ATP, 15 min, 37 °C) [8]: 9.5 µM

B1
binding result [9]: binds
binding result [10]: binds
binding result [11]: binds
binding result [12]: binds

B2
binding result [13]: binds

B3
binding result [13]: binds

B4
binding result [13]: binds

B5
binding result [13]: binds

— article PMC11267003, “Interdomain communication in a homodimeric ABC transporter” (The Journal of Biological Chemistry, 2024)
